Laboratory results reported in patent US20230218735A1 (Pfizer, published 2023).

The binders below were run against C. difficile toxin A (Clostridium difficile, UniProt P16154 1-2710) (assay: cell-based or functional assay).
Sequence of C. difficile toxin A (P16154 whole entry): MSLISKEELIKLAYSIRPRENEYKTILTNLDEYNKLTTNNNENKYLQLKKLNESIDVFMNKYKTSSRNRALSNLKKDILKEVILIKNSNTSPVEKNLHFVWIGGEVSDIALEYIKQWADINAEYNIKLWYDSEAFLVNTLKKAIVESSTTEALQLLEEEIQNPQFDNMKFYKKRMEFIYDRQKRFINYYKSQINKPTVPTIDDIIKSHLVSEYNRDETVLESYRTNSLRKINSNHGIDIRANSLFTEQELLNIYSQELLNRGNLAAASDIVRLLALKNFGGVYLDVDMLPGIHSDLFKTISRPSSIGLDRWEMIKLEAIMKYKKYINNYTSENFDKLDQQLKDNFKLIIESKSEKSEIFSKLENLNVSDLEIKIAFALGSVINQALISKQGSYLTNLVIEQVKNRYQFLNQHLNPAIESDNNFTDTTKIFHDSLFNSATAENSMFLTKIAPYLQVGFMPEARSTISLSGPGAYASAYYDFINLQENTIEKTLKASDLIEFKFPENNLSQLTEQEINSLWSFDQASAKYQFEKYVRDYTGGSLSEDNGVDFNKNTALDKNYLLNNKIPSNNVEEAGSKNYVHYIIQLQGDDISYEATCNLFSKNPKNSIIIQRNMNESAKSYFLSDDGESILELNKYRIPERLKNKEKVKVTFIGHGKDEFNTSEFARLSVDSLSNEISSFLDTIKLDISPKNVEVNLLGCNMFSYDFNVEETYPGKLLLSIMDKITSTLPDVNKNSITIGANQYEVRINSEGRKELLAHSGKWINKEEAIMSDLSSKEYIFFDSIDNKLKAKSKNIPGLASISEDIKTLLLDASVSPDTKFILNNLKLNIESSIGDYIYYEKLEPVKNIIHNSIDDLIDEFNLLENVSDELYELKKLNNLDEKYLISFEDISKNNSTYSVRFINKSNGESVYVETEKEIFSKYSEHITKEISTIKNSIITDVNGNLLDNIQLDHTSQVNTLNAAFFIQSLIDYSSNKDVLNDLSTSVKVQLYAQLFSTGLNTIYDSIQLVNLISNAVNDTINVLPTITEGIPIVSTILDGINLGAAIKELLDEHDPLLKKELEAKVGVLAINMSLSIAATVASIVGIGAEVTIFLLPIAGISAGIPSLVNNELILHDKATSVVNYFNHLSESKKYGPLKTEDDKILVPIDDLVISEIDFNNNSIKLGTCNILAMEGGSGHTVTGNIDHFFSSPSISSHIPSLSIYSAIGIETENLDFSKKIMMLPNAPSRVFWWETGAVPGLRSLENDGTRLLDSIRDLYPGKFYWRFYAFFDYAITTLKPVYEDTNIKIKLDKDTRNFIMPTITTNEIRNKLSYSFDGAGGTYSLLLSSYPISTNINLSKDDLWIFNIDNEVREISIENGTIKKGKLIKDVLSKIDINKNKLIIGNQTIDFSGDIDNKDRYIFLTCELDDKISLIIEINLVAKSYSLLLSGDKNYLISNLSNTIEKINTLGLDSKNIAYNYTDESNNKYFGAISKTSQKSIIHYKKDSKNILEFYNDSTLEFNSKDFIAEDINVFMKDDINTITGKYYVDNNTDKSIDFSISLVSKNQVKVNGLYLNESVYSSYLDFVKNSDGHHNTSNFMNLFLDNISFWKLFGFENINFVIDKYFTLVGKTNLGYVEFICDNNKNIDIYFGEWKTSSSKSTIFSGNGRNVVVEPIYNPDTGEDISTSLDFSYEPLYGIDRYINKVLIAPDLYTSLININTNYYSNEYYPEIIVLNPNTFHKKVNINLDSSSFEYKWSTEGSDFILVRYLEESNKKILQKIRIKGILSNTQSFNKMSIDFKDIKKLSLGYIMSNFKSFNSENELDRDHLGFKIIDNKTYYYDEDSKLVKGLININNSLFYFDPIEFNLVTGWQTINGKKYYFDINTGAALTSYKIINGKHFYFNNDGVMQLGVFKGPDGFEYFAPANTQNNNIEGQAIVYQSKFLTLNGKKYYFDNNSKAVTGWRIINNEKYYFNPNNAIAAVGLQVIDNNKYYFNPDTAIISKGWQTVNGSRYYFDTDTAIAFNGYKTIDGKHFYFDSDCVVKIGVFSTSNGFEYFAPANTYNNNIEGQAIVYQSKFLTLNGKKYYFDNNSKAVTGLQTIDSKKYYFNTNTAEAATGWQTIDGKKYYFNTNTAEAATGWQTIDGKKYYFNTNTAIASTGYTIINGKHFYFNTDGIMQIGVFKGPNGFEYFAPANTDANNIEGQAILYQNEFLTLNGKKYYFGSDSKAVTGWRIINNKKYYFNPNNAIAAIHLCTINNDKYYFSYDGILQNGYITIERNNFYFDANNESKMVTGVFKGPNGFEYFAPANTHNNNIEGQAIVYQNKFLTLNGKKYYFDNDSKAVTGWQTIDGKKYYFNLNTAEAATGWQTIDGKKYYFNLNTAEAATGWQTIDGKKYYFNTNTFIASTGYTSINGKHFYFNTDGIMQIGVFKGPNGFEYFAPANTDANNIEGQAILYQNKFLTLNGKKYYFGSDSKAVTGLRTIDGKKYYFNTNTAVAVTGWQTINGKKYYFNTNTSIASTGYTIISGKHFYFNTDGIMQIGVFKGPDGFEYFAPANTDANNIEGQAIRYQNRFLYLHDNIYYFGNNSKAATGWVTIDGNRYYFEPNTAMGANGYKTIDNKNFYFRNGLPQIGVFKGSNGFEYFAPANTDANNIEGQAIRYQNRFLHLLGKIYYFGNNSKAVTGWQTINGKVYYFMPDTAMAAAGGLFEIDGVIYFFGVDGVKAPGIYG

Row | Binder | EC50 TcdA [RLU], toxin neutralization assay (TNA) on IMR90 cells [RLU]
1 | hCDIFA-23 (antibody, V domains shown) VH: QVQLVQSGGGVVQPGRSLRLSCAASGFTFSQYSIHWVRQAPGKGLEWVAVMSYDGRNKYYADSVKGRFTISGDNSRNTLYVQMNSLRAEDTAIYYCARDLIKAAMVPAFDIWGQGTMVTVSS VL: TALTQPRSVSGSPGQSVTISCTGTNSDVADYNYVSWYQHHPGKAPKLMIYDVTKRPSGVPDRFSGSKSGNTASLTISGLQAEDEADYYCCSYAARYTFGGGTKLTVLG | 136
2 | hCDIFA-49 (antibody, V domains shown) VH: QVQLQESGPRLLEPSETLSLSCTVSGGSITSYYWGWIRQSPGKGLQWIGHIDSSGNTNYNYNSSLMNRVTISVVTSKNQFSLKLTSVTPADSAVYYCARVYLFYFGQSKWEYFDSWGQGTLVTVSS VL: QSALTQPPSVSGAPGQRVTISCTGSDSNIGTDYDVHWYKQVPGAAPKLLIYGINNRPSGVPDRFSGSKSGTSASLAITGLQAEDEGDYYCQSYDIRPSGSVVFGGGTKLTVLG | 305000
3 | hCDIFA-20 (antibody, V domains shown) VH: EVQLVQSGAEVRIPGASVKVSCKASGFTFNDYYIHWVRQAPGQGLEWMGWINAHNGVTSYAQNFQDRVTMTRDTSITTAYMDLSRLRSDDTAVYYCARDCSTSSCFDHWGQGSLVTVSS VL: SYELTQPPSLSVAPGKTAKITCGGNNIGSKGVHWYQQRPGQAPVLVIYYNADRPSGIPERFSGSNSGNTATLTISRVEAGDEADYFCQVWDGDSAHRVFGGGTKLTVLG | 3200
4 | hCDIFA-36 (antibody, V domains shown) VH: QVQLVQSGGGLVQPGRSLRLSCAASGFAFDDYALHWVRQVPGKGLEWVSGISWNSDSIAYADSVKGRFTISRDNAKNSLYLQMNGLRAEDTALYYCAKDRTIASAGIPDEFQHWGQGTLVTVSS VL: DIVMTQSPATLSVSPGERATLSCRASQSVSYKVAWYQQKPGQAPRLLIYGASTRDTGIPARFSGSGSGTDFTLTISSLQSEDSAVYYCQQYSNWPTTFGQGTKVEIKR | 426000
5 | hCDIFA-38 (antibody, V domains shown) VH: QVQLVESGPALVKPTQTLTLTCTFSGFSLSSIGMCVSWIRQPPGKALEWLARIDWDDSKYYSPSLQARLAISKDTSKNQVVLTMTNVDPMDAGTYYCARTSATLTGPSRVFDYWGQGSLVTVSS VL: DVVMTQSPATLSVSPGERATLSCRASQSVRFNLAWYQQKPGQAPRLLISGASTRATGIPARFSGSGSGTEFTLTISSLQSEDFAVYYCQQYNNWPPLTFGGGTKVEIKR | 10500
6 | hCDIFA-28 (antibody, V domains shown) VH: QVQLVQSGAQVKKPGSSVKVSCKASGYAFISYGITWVRQAPGQGLEWMGWISAYNGDTNYAQKFQGRVTMTTDTSTNTAYMELRSLRSDDTAVYYCARALTRVAVALPHPYWGQGTLVTVSS VL: not shown | 25800
7 | hCDIFA-18 (antibody, V domains shown) VH: QVQLVQSGAEVKKPGASVKVSCKASGYTFTSYAMHWVRQAPGQRLEWMGWINAGNGNTKYSQEFQGRVTITRDTSASTAYMELSSLRSEDMAVYYCARAHLPGYCSSTSCYIMYVWGKGTTVTVSS VL: not shown | 1330
8 | hCDIFA-22 (antibody, V domains shown) VH: QVQLVQSGGGLVQPGGSLRLSCSASGFTFSSYAMHWVRQAPGKGLEYVSAISSNGGSTYYADSVKGRFTISRDNSKNTLYLQMSSLRAEDTAVYYCVRAAAGNWFDPWGQGTLVTVSS VL: AIRMTQSPSSVSASVGDRVTITCRASQGISSWLAWYQQKPGKAPKLLIYAASSLQSGVPSRFSGSGSGTDFTLTISSLQPEDFATYYCQQANSFPLTFGGGTKVDIKR | ~16
9 | hCDIFA-4 (antibody, V domains shown) VH: QVQLQESGPGLVKPSGTLSLTCAVSGGSISSINWWSWVRQPPGKGLEWIGEIYHSGSTNYNPSLKSRVTISVDKSKNQFSLKLSSVTAADTAVYYCAREGKVDSSSQGNWFDPWGQGTLVTVSS VL: QPVLTQPRSVSGSPGQSVTISCTGTSSDVGGYNYVSWYQQHPGKAPKFMIYDVSKRPSGVPDRFSGSKSGNTASLTISGLQAEDEADYYCCSYAGTYTFYVFGTGTKVTVLG | 22800
10 | hCDIFA-3 (antibody, V domains shown) VH: EVQLVESGGGVVQPGRSLRLSCAASGFTFSSYAMHWVRQAPGKGLEWVAVISKDGDNKYYTDPLKGRFTISRDNSKNTLYLQMISLRGEDTAVYYCARDLNIWSGYYLRTINYYMDVWGKGTTVTVSS VL: DIVMTQSPSFLSASVGDRVTITCRASQGIRNDLGWYQQKPGKAPKLLIYAASTLQSGVPSRFSGSGSGTEFTLTISSLQPEDFATYYCQQPGSHPPFGGGAKLEIKR | 199000
11 | hCDIFA-51 (antibody, V domains shown) VH: EVQLLESGGGVVQPGRSLRLSCAASGFTFSNYGMHWVRQAPGKGLEWVAVIWYDGSNKYYADSVKGRFTISRDNSKNMVYLQMNSLRGADTAVYYCAGDRHLGLWGYYYYYYAMDVWGQGTTVTVSS VL: QAVVTQPPSVSAAPGQRVTISCSGSSSNIGKNYVSWYQHLPGTAPKLLIYESNKRPSGIPDRFSGSKSGTSATLGITGLQTGDEADYYCGTWDSSLSAGLFGGGTKVTVLG | 1640
12 | hCDIFA-54 (antibody, V domains shown) VH: QVQLVESGAEVKKPGASVKVSCKASGYTFTSYDINWVRQATGQGLEWMGWMNPNSGNTGYAQKFQGRVTMTRNTSISTAYMELSSLRSEDTAVYYCARGGPNSGSFSHWFDPWGQGTLVTVSS VL: QAVVTQPPSASASLGASVTLTCTLSSGYSNYKVDWYQQRPGKGPRFVMRVGTGGIVGSKGDGIPDRFSVLGSGLNRYLTIKNIQEDDESDYHCGADHGSGSNFAVVFGGGTKLTVLG | 1490
13 | hCDIFA-30 (antibody, V domains shown) VH: EVQLVESGAEVKRPGASVKVSCRTSAYAFTNYFMHWVRQAPGQGLEWVAVINLSGGNTNYAQSFQGRVNMTRDTSTSTVYMELSSLRSEDTAVYFCAIGGIWFGEYPNWFDPWGQGTLVTVSS VL: NFMLTQPPSVSAAPGRKVTVSCSGSSSNIGNNYVSWYQQFPGTAPKLLIYDNNKRHSGIPARFSGSKSGTSATLGITGLQTGDEADYYCATWDSSLKYVVFGGGTKLTVLG | 1480
14 | hCDIFA-50 (antibody, V domains shown) VH: QVQLVQSGTEVKKPGASVKVSCKASGYTFTNYGISWVRQAPGQGLEWMGWISGNNGHTNYAQNLQGRVTMTTDTSTSTAYMELRSLRSDDTAVYYCARVTRWFGELLGDYWGQGTLVTVSS VL: QTVVTQEPSLTVSPGGTVTLTCASSTGAVTSGFLPNWFQQKPGQAPRALIYNTNNKHSWTPARFSGSLLGGKAALTLSGVQPEDEAEYYCLLYFDDAQVQVFGGGTKLTVLG | 1490
15 | hCDIFA-34 (antibody, V domains shown) VH: QVQLVESGGDLIQPGESLRLSCVASGFTVGSHYMTWVRQAPGKGLEWVSTIYSGGTTKYADSVKGRFTISRDNSKNTLFLQMNSLRTEDTAVYFCARGSAFSSSWWLVDFWGQGTLVTVSS VL: SYELTQPPSVSVAPGKTARITCEDNYVGGNNVHWYQQKPGQAPVLVVSDDNARPSGIPERVSGSKSGNTATLIINRVEVGDEADFYCQVWDSSRDRVLFGGGTKLTVLG | 247
16 | hCDIFA-41 (antibody, V domains shown) VH: QVQLQESGPGLVKPSQTLSLTCTVSGDSISSNQYYWTWIRQPAGKGLEWIGQIESAYFTNYNPSLKGRVTISGDASKNVLSLTLTSVTAADTALYWCAREAGGGLGYCTGGRCQFSGYYYYGLDVWGQGTTVTVSS VL: QSALTQPPSVSAAPGQTVTISCSGSHSNIGNNYVSWYQQLPGTAPRRLIYDTDKRPSGIPDRFSGSKSGTSATLVITGLRAGDEADYYCGTWDGSLSAGVFGGGTKLTVLG | 673
17 | hCDIFA-47 (antibody, V domains shown) VH: QVQLQESGAEVKKPGSSVKVSCQASGGTFSNYAFNWVRQAPGQGLEWMGRTIPIVGLVNYAQNFQGRITFSADKSTSTAYMEVNSLRSDDTAVYYCARAEYPLNCTRGNCDVGTSYHYYYGMGVWGRGTTVTVSS VL: EIVMTQSPATLSVSPGERATLSCRASQSISSNLAWFQQKPGQAPRLLIHGASTRATGIPVRFSGSGSGTEFTLTISSLQFGDSAVYYCQQYYNWRYTFGQGTKLEIKR | 12700
18 | hCDIFA-2 (antibody, V domains shown) VH: QVQLVESGGGLVQPGGSLRLSCAASGFTFSSYAMSWVRQAPGKGPEWVSNIIGSGGSTYFTDSVKGRFTISRDNSKNTVYLQMNSLRAEDTAVYYCAKEGCRGYDSGNYFAPKMFCLWGQGTLVTVSS VL: NFMLTQPASVSGSPGQSITISCTGTSSDIGAYNYVSWYQQHPGTAPKLMIYEVSHRPSGVSNRFSGSKSGDTASLTISGLQAEDEADYYCSSYTTSITYVFGTGTKLTVLG | ~38
19 | hCDIFA-43 (antibody, V domains shown) VH: QVQLVQSGPVLVKPTETLMLTCTVSGFSLSSAGMGVSWIRQPPGKAPEWLAHIFLSDEKSYRTSLESRLTISKDTSKSQVVLIMTNVDPADTATYYCARALKRYCTGGVCFLNWFDSWGPGTVVTVSS VL: DIVMTQSPGTLSLSPGERATLSCRASLSIGNLYLAWYKQRPGHPPRLLIYGASSRATGTPDRFSGSGSGTDFTLTISRLEPEDFVVYYCQQYKTSPWTFGQGTKVEIKR | 3210
20 | hCDIFA-39 (antibody, V domains shown) VH: QVQLQESGPGLVKPSETLSLTCTLSGGSISSDNYYWGWVRQPPGKGLEWIGSIYYSGSTYYNPSLKSRVFISVDMSKNQFSLKLSSVTAADTAVYYCARHTQGLGILRYFDWWTRPFDYWGQGTLVTVSS VL: DIQMTQSPSSLSASVGDRVTITCRASQNINTYLSWYRQKPGKAPELLIYAASNLQSGVPSRFSGSGSGTDFTLTIHSLQPEDFATYYCQQSYTTLTFGGGTKVEIKR | 400
21 | hCDIFA-53 (antibody, V domains shown) VH: QVQLQQSGPGLVKPSETLSLTCTLSGGSISSDNYYWGWVRQPPGKGLEWIGSIYYSGSTYYNPSLKSRVFISVDMSKNQFSLKLSSVTAADTAVYYCARHTQGLGILRYFDWWTRPFDYWGQGTLVTVSS VL: QSALTQPASVSGSPGQSITISCTGTSSDVGSYNLVSWYQQHPGKAPKLMIYEGSKRPSGVSNRFSGSKSGNTASLTISGLQAEDEADYYCCSYAGSSTLFGGGTKLTVLG | 4100
